In paper PMC5095350, “Engineered AAA+ proteases reveal principles of proteolysis at the mitochondrial inner membrane” (Nature Communications, 2016):
Values belong to the molecule of their own block, whether it stands above or below them.

Columns and labels:
hexYME1L (human) [1] = target: T1, hexYME1L (human) (UniProt Q96TA2)
T1 sequence: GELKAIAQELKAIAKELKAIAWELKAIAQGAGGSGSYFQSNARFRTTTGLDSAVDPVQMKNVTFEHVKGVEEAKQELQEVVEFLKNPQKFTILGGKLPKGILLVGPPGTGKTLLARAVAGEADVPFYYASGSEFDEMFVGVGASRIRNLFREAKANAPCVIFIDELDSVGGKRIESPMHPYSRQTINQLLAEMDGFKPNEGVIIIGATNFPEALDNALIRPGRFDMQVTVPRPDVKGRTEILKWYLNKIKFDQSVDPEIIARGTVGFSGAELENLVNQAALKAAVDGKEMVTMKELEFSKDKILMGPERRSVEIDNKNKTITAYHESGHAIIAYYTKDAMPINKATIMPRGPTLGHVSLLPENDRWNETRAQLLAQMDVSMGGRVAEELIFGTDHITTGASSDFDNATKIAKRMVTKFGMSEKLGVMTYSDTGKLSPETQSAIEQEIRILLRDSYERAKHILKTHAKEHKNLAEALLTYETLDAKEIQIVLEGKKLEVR

hexYME1L (human) [2] = target: T1, hexYME1L (human); remark: listed apart in the source
purified protein = substrate: Nc1ncnc2c1ncn2[C@@H]1O[C@H](COP(=O)(O)OP(=O)(O)OP(=O)(O)O)[C@@H](O)[C@H]1O; assay: purified protein; settings: Hill form of Michaelis-Menten equation, MgCl2 5 mM, pH 8.0, 37 °C, no protein substrate
hexYME1L (human) [3] = target: T1, hexYME1L (human); remark: listed apart in the source
[4] = target: the molecule itself; assay: SEC; analytical SEC, Superose 6 Increase 10/300 GL; 1 mg of protein in 200 μl; 50 mM Tris-HCl (pH 8.0), 100 mM NaCl, 0.5 mM TCEP; hexYME1L also with 5 mM EDTA or with ATPγS and MgCl2 (no change in migration)

stimulation of the ATPase rate of hexYME1L (0.25 μM) by 20 μM substrate (not significant) (hexYME1L (human) [1]): 6%
Molecule: I27 domain of human titin (domain or fragment)

stimulation of the ATPase rate of hexYME1L (0.25 μM) by 20 μM substrate (not significant) (hexYME1L (human) [1]): 14%
Molecule: carboxymethylated I27 domain of human titin (domain or fragment)

KM of ATP-dependent degradation by hexYME1L (1 μM), loss of GFP fluorescence, 37 °C (hexYME1L (human) [2]): 12 µM
Molecule: cp7-^SFGFP-ssrA

KM of ATP-dependent degradation by hexYME1L (1 μM), loss of GFP fluorescence, 37 °C (hexYME1L (human) [2]): 15.2 µM
Molecule: cp7-^SFGFP-sul20C

B1: hexYME1L (Homo sapiens) (protein)
chain: RFRTTTGLDSAVDPVQMKNVTFEHVKGVEEAKQELQEVVEFLKNPQKFTILGGKLPKGILLVGPPGTGKTLLARAVAGEADVPFYYASGSEFDEMFVGVGASRIRNLFREAKANAPCVIFIDELDSVGGKRIESPMHPYSRQTINQLLAEMDGFKPNEGVIIIGATNFPEALDNALIRPGRFDMQVTVPRPDVKGRTEILKWYLNKIKFDQSVDPEIIARGTVGFSGAELENLVNQAALKAAVDGKEMVTMKELEFSKDKILMGPERRSVEIDNKNKTITAYHESGHAIIAYYTKDAMPINKATIMPRGPTLGHVSLLPENDRWNETRAQLLAQMDVSMGGRVAEELIFGTDHITTGASSDFDNATKIAKRMVTKFGMSEKLGVMTYSDTGKLSPETQSAIEQEIRILLRDSYERAKHILKTHAKEHKNLAEALLTYETLDAKEIQIVLEGKKLEVR
K0.5 (purified protein): 1.4 mM

initial rate of ATP-dependent degradation of β-casein (20 μM) by hexYME1L (1 μM), SDS-PAGE (β-casein molecules min^−1 enz6^−1) (hexYME1L (human) [3]): 0.49
B2: β-casein (natural protein)
chain: RELEELNVPGEIVESLSSSEESITRINKKIEKFQSEEQQQTEDELQDKIHPFAQTQSLVYPFPGPIPNSLPQNIPPLTQTPVVVPPFLQPEVMGVSKVKEAMAPKHKEMPFPKYPVEPFTESQSLTLTDVENLHLPLPLLQSWMHQPHQPLPPTVMFPPQSVLSLSQSKVLPVPQKAVPYPQRDMPIQAFLLYQEPVLGPVRGPFPIIV

B3: hexYME1L (enzyme, human)
chain: T1 sequence
notes: cc-hex, de novo designed peptide that forms a hexameric coiled coil; replaces the N-terminal domain and transmembrane span of YME1L; 10-residue linker between cc-hex and YME1L-AP; human YME1L isoform 1, AAA+ ATPase domain and M41 protease domain, residues 317-773; also called hexYME1L-AP; hexameric YME1L; source: E. coli BL21 (DE3), purified (glutathione agarose, TEV cleavage, Ni-NTA, SEC); not …
stoichiometry N [4]: ~6
